What is called % Inhibition is how much of the control response was suppressed. Higher therefore signals a strong effect. In general, kon refers to the second-order rate constant of association. The low end stands for slower complex formation, the high end for faster complex formation.

The target of experiment [1] is T1, human kallikrein 2 (hK2) (human, UniProt P20151 25-261). Description: cell-based or functional assay.
For experiment [2], the target named is prostate specific antigen (PSA, hK3) (human, UniProt P07288 25-261). Briefly: cell-based or functional assay.
The target in experiment [3] is T2, human chymotrypsin (Chtr) (human, UniProt P17538 19-263). Briefly: cell-based or functional assay.
The target of experiment [4] is T3, human plasma kallikrein (PK) (human, UniProt P03952 20-638). Description: cell-based or functional assay.
For experiment [5], the target named is T4, human neutrophil elastase (HNE) (human, UniProt P08246 30-247, limits assumed).
T4 sequence (looked up): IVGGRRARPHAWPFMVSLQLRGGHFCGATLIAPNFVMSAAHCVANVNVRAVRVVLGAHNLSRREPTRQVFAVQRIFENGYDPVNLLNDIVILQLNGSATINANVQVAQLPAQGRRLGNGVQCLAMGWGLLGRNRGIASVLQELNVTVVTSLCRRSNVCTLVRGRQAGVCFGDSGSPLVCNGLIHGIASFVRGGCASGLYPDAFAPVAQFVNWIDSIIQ
Description: cell-based or functional assay.

Experiment [6] deals with thrombin. Description: cell-based or functional assay.
The target in experiment [7] is T5, human kallikrein 14 (hK14) (human, UniProt Q9P0G3 25-251, limits assumed).
T5 sequence (looked up): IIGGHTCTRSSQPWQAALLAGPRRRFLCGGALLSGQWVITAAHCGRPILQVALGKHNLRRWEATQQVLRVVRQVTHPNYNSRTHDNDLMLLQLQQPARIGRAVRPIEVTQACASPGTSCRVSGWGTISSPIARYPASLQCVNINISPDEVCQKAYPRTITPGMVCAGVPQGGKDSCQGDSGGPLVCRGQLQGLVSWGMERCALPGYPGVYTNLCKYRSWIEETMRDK
Briefly: cell-based or functional assay.

The target of another experiment is T6, human kallikrein 5 (hK5) (human, UniProt Q9Y337 67-293, limits assumed).
T6 sequence (looked up): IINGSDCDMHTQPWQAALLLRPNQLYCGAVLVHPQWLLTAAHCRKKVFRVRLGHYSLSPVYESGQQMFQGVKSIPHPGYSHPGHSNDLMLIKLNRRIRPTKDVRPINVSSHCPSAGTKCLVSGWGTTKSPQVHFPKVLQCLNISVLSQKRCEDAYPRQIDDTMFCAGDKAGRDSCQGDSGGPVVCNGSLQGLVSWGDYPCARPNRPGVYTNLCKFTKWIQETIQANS
Briefly: cell-based or functional assay.

In a further experiment the target is human kallikrein 6 (hK6) (human, UniProt Q92876 22-244). Briefly: cell-based or functional assay.
The next experiment concerns the target T7, human kallikrein 8 (hK8) (human, UniProt O60259 33-260).
T7 sequence (looked up): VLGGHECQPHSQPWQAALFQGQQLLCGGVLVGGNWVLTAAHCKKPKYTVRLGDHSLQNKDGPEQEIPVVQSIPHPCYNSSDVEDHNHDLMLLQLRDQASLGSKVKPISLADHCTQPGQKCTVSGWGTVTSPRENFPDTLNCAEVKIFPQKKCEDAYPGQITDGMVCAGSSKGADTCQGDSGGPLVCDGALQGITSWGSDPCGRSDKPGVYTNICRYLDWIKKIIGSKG
Description: cell-based or functional assay.

For experiment [8], the target named is T8, human kallikrein 13 (hK13) (human, UniProt Q9UKR3 26-277, limits assumed).
T8 sequence (looked up): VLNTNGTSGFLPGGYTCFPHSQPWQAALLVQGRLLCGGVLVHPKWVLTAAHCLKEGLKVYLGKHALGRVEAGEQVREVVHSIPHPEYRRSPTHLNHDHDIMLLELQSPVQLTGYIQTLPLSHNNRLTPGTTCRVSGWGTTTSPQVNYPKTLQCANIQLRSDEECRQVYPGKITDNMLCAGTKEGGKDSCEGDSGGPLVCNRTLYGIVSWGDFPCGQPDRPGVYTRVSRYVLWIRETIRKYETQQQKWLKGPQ
Description: cell-based or functional assay.

Experiment [9] deals with T2, human chymotrypsin (Chtr). Briefly: cell-based or functional assay. The source holds these as a separate data set.
Experiment [10] deals with T3, human plasma kallikrein (PK). Description: cell-based or functional assay. The source holds these as a separate data set.
Experiment [11] has as its target T9, urokinase plasminogen activator (uPA) (UniProt P00749 21-431, limits assumed). Briefly: cell-based or functional assay.
Experiment [12] addresses T4, human neutrophil elastase (HNE). Description: cell-based or functional assay. This is another data set of the same source.
The target in experiment [13] is thrombin. Description: cell-based or functional assay. This is another data set of the same source.
The target in experiment [14] is T5, human kallikrein 14 (hK14). Briefly: cell-based or functional assay. This is another data set of the same source.
The target of experiment [15] is T5, human kallikrein 14 (hK14). Description: residual hK14 activity against [I0]/[E0]. The protocol:
(§1) SI values of rAAT, rACT, and their variants were determined with hK14 incubating the protease with varying concentrations of inhibitor. After an incubation of 4 hours at 37° C. in reaction buffer (50 mM Tris, pH 7.5, 150 mM NaCl, 0.05% Triton X-100, 0.01% BSA), the residual activity was detected by the addition of fluorescent substrate (Boc-Val-Pro-Arg-AMC). Fluorescence was measured with excitation at 340 nm (±15) and emission at 485 nm (±10) in black 96 well plates using a microplate fluorescence reader FLₓ800 (Bio-Tek Instruments, Inc.). The SI value corresponds to the abscissa intercept of the linear regression analysis of fractional velocity (velocity of inhibited enzyme reaction (vi)/velocity of uninhibited enzyme reaction (v₀)) vs. the molar ratio of the inhibitor to enzyme ([I₀]/[E₀]).

The target in experiment [16] is T5, human kallikrein 14 (hK14). Description: residual hK14 activity after 4 h at 37 C against [I0]/[E0]. The protocol:
as §1

For experiment [17], the target named is T1, human kallikrein 2 (hK2). Description: cell-based or functional assay. The source holds these as a separate data set.
For the next experiment, the target named is human kallikrein hK1 (human, UniProt P06870 25-262). Description: cell-based or functional assay.
Experiment [18] concerns the target T3, human plasma kallikrein (PK). Briefly: cell-based or functional assay. This is another data set of the same source.
Experiment [19] has as its target T9, urokinase plasminogen activator (uPA). Briefly: cell-based or functional assay. The source holds these as a separate data set.
Experiment [20] deals with T1, human kallikrein 2 (hK2). Briefly: progress curve, pseudo-first order, fluorogenic substrate. The protocol:
(§2) Under these conditions, a fixed amount of enzyme (2 nM) was mixed with different concentrations of inhibitor (0-800 nM) and an excess of substrate (10 μM). Each reaction was made in reaction buffer (50 mM Tris pH 7.5, 150 mM NaCl, 0,05% Triton X-100, 0.01% BSA) at 25° C. for 45 min and the rate of product formation was measured using a FLₓ800 fluorescence 96-well microplate reader (Biotek, USA). In this model, inhibition is considered to be irreversible over the course of reaction and the progress of enzyme activity is expressed by product formation (P), beginning at a rate (vz) and is inhibited over time (t) at a first-order rate (kobs), rate constant that is dependent only on inhibitor concentration.

Experiment [21] deals with T3, human plasma kallikrein (PK). The description is as above. The protocol:
as §2

Experiment [22] deals with T1, human kallikrein 2 (hK2). Description: residual enzyme activity against [I]o/[E]o, fluorogenic substrate. The protocol: (§3) The stoichiometry of inhibition (SI) values were determined for the inhibition of rACTWT and its variants with hK2 and different other enzymes. An initial test was made with a molar excess of rACT (100 fold) over hK2, PSA, hK1, chymotrypsin (Chtr), plasma kallikrein (PK), urokinase (uPA) and human neutrophile elastase (HNE) enzymes. The reaction was carried out for 30 min at 25° C. (90 min at 37° C. for PSA) in reaction buffer (50 mM Tris pH 7.5, 150 mM NaCl, 0,05% Triton X-100, 0.01% BSA) and residual enzyme activity was measured by adding fluorescent substrates (Z-Phe-Arg-AMC for hK1, hK2 and PK, Suc-Ala-Ala-Pro-Phe-AMC for Chtr, Z-Gly-Gly-Arg-AMC for uPA, MeOSuc-Ala-Ala-Pro-Val-AMC for HNE, and CFP-TFRSA-YFP (TFRSA SEQ ID NO:137) for PSA). Activity of enzyme in presence of inhibitors was compared to uninhibited reaction. For reactions where an inhibition was observed, SI was determined by incubating different concentrations of recombinant serpins. Using linear regression analysis of fractional activity (velocity of inhibited enzyme reaction/velocity of uninhibited enzyme reaction) versus the molar ratio of the inhibitor to enzyme ([Iₒ]/[Eₒ]), the stoichiometry of inhibition, corresponding to the abscissa intercept, was obtained.

The target in experiment [23] is T3, human plasma kallikrein (PK). The experiment is described as above. Here is the method:
as §3

T3 sequence (P03952 20-638 limits assumed): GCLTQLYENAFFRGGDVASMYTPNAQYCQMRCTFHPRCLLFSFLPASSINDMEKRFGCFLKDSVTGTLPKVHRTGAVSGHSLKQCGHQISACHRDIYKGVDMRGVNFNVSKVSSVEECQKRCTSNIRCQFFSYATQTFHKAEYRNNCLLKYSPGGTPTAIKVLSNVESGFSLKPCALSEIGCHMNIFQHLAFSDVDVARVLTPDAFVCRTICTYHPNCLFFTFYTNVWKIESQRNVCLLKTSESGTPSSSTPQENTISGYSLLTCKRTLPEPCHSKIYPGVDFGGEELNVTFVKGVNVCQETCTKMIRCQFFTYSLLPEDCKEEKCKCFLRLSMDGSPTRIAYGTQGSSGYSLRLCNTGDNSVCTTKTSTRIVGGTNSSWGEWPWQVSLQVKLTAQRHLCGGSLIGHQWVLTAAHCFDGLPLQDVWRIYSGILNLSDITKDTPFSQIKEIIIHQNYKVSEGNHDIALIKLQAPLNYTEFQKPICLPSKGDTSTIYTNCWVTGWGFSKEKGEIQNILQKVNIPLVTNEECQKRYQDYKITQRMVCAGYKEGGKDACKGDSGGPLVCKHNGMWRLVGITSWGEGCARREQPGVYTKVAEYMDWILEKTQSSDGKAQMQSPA
T2 sequence (P17538 19-263): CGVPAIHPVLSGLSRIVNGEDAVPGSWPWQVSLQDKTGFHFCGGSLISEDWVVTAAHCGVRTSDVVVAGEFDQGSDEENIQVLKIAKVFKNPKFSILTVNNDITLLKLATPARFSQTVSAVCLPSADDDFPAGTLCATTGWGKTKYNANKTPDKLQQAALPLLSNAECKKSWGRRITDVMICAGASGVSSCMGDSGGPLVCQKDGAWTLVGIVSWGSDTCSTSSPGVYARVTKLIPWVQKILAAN

B1: AATE8 (other, human)
chain: HHHHHHEDPQGDAAQKTDTSHHDQDHPTFNKITPNLAEFAFSLYRQLAHQSNSTNIFFSPVSIATAFAMLSLGTKADTHDEILEGLNFNLTEIPEAQIHEGFQELLRTLNQPDSQLQLTTGNGLFLSEGLKLVDKFLEDVKKLYHSEAFTVNFGDTEEAKKQINDYVEKGTQGKIVDLVKELDRDTVFALVNYIFFKGKWERPFEVKDTEEEDFHVDQVTTVKVPMMKRLGMFNIQHCKKLSSWVLLMKYLGNATAIFFLPDEGKLQHLENELTHDIITKFLENEDRRSASLHLPKLSITGTYDLKSVLGQLGITKVFSNGADLSGVTEEAPLKLSKAVHKAVLTIDEKGTEAAGAMFLEALQRAIPPEVKFNKPFVFLMIEQNTKSPLFMGKVVNPTQK
notes: mature; also called rAATE8
Take B1: the Percentage inhibition worked out at 19% with human kallikrein 2 (hK2) [1]; 0% in experiment [2]; 19% in [3]; 100% in [4]; 0% in experiment [5]; 0% in the experiment with thrombin [6]. Besides, the Percentage inhibition in experiment [7] worked out at 100%; with human kallikrein 5 (hK5) it was 100%; with human kallikrein 6 (hK6), 100%; in the experiment with human kallikrein 8 (hK8), 36%; in experiment [8] it was 30%. In addition, the “% Inhibition” value in experiment [9] turned out to be 19%; in [10] it was 100%; in experiment [11], 0%; in experiment [12] it was 0%; in the experiment with thrombin [13], 0%; in experiment [14], 100%. Further, the “SI (stoichiometry of inhibition)” value in experiment [15] and in experiment [16] was 7.4 each time.

B2: rACT6.2 (other)
chain: MRGSHHHHHHSRHPNSPLDEENLTQENQDRGTHVDLGLASANVDFAFSLYKQLVLKAPDKNVIFSPLSISTALAFLSLGAHNTTLTEILKGLKFNLTETSEAEIHQSFQHLLRTLNQSSDELQLSMGNAMFVKEQLSLLDRFTEDAKRLYGSEAFATDFQDSAAAKKLINDYVKNGTRGKITDLIKDLDSQTMMVLVNYIFFKAKWEMPFDPQDTHQSRFYLSKKKWVMVPMMSLHHLTIPYFRDEELSCTVVELKYTGNASALFILPDQDKMEEVEAMLLPETLKRWRDSLEFREIGELYLPKFSISRDYNLNDILLQLGIEEAFTSKADLSGITGARNLAVSQVVHKAVLDVFEEGTEASAATAVKITRRSIDVETRTIVRFNRPFLMIIVPTDTQNIFFMSKVTNPKQA
notes: recombinant ACT variant, RSL substrate peptide RRSID; N-terminal His tag, E. coli TG1; also called MD62; MD 62
With B2, the INHIBITION % in the experiment with human kallikrein 2 (hK2) [17] is 100%; with human kallikrein hK1, 0%; in experiment [18] it was 100%; in [19] it was 0%. Also, the kon came out at 6260 M⁻¹ s⁻¹ with human kallikrein 2 (hK2) [20] and 6220 M⁻¹ s⁻¹ in experiment [21]. For the same molecule, the “SI (stoichiometry of inhibition)” value in the experiment with human kallikrein 2 (hK2) [22] amounted to 25; in [23], 18.

Source of the values: patent publication US20140341881A1 (DERMADIS, published 2014).
